From article PMC7705225, “Hfq-Assisted RsmA Regulation Is Central to Pseudomonas aeruginosa Biofilm Polysaccharide PEL Expression”

Molecular target: RsmA (Pseudomonas aeruginosa PAO1, UniProt O69078 1-61)
Experiment: EMSA; without Hfq
Conditions: protein: recombinant; tags: His6 (C-terminal, RsmA-His6); chain copies: 2; label: none (SYBR Gold stain)

RsmA, sequence (O69078 whole entry): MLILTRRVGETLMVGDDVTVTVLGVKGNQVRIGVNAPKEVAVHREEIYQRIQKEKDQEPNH

B1: truncated vfr RNA (structured_RNA)
RNA: CUUUCGGGACUCGGGCAUGGUAGCUAUUACCCACACACCCAAACUCAAACACCUAGACAAGCUGCUCGCACACUGUCACCGCCGCCGCUACACCGCAAAGAGCACCAUCAUCUAUGCCGGCGAUCGCUGCGAU
  binding result: binds
